Values of other authors, collected in article PMC5576430.
Like-named read-outs stand apart in the source and are kept apart here. Values belong to the substance of their own block, whether it stands above or below them.

Experiments:
p300 CH1 (Homo sapiens) [1] = target: p300 CH1 (Homo sapiens) (UniProt Q09472); assay: tryptophan fluorescence
HIF-1α (Homo sapiens) = HIF-1α (Homo sapiens) (UniProt Q16665)
p300 CH1 (Homo sapiens) [2] = target: p300 CH1 (Homo sapiens) (UniProt Q09472)

UniProt Q09472, sequence (Q09472 331-417): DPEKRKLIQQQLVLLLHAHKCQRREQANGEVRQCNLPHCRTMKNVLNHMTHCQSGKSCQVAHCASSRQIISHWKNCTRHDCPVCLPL

Kd (p300 CH1 (Homo sapiens) [1]): 6060 nM
Substance: HIF-1α helix 3 unconstrained peptide helix 3 (from UniProt Q16665)

Kd (HIF-1α (Homo sapiens)): 124 nM
Substance: cyclo-CLLFVY

Kd (p300 CH1 (Homo sapiens) [2]): 825 nM
Substance: HIF-1α C-TAD helix 2 peptide
